Patent CN117192118A (DRAGONBOAT BIOPHARMACEUTICAL SHANGHAI CO LTD, dated 2023)

How the values were obtained:
[1] = molecular target: T1, 人CD47 (human, UniProt Q08722 19-139, limits assumed); experiment: ELISA competition, blocking of CD47 binding to SIRPα
T1 construct: The construct is not described

[2] = molecular target: T2, 人CLDN18.2 (human, UniProt P56856-2 1-261, limits assumed); experiment: ELISA
T2 construct: The construct and its source are not described; P56856 is the CLDN18 entry; CLDN18.2 is its isoform 2 (A2)
T2 sequence (looked up): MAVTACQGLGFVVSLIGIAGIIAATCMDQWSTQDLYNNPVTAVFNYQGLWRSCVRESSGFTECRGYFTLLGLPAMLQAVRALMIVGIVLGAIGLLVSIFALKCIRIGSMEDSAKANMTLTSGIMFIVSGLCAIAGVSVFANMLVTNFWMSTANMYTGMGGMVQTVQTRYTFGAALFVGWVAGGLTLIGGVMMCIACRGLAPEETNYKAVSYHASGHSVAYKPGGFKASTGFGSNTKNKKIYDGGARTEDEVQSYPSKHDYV

[3] = molecular target: T1, 人CD47; experiment: ELISA
[4] = molecular target: T2, 人CLDN18.2; experiment: BLI
[5] = molecular target: T1, 人CD47; experiment: BLI

T1 sequence (Q08722 19-139 limits assumed): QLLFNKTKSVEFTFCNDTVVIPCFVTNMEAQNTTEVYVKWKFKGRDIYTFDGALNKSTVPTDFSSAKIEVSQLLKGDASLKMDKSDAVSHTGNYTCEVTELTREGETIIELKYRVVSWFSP

- IC50 [1]: 2.2 µg/mL
- EC50 [2]: 0.121 µg/mL
- EC50 [3]: 0.0462 µg/mL
- Kd [4]: 1.87 nM
- Kd [5]: 21.8 nM
B1: 抗CD47-CLDN18.2双特异性抗体双抗A (bispecific antibody, human IgG1, kappa)
heavy: not shown
light: DIQMTQSPSSLSASVGDRVTITCRASQDISNHLNWYQQKPGKAPKLLIYYTSRIHSGVPSSFRGSGSGTDYTLTISSLQPEDIATYFCQQGYTLPFTFGSGTKLEIKRTVAAPSVFIFPPSDEQLKSGTASVVCLLNNFYPREAKVQWKVDNALQSGNSQESVTEQDSKDSTYSLSSTLTLSKADYEKHKVYACEVTHQGLSSPVTKSFNRGEC
notes: The short chain is the A7H3L3 kappa light chain; Expressed in CHO-K1; also called 本发明抗体
